{"source": "patent US20160311918A1", "about": "“Anti-Ron Monoclonal Antibodies as a Cytotoxic Drug Delivery System for Targeted Cancer Therapy” (TEXAS TECH UNIVERSITY SYSTEM, priority 2013, published 2016)", "molecules": {"B1": {"name": "Zt/g4-DM1: anti-RON mouse mAb Zt/g4 conjugated to maytansinoid DM1 via non-reducible thioether linkage (SMCC), DAR about 4:1 (conjugate)", "VH": "EVQLQQSGAELVKPGASVKLSCTTSGFNIIDTYIHWVNQKPDQGLEWIGRIDPADGNRKSDPKFQVKATITVDTSSNTAYLQLSSLTSGDTAVYYCARGYGNLNAMDSWGQGTSVTVSS", "VL": "DIQMNQSPSSLSASLGDTITITCHASQNINVWLNWYQQKPGNIPKLLIYKASNLHTGVPSRFSGSGSGTGFTLTISSLQPEDIATYYCQQGQSYPLTFGGGTKLEIK"}}, "biological_target": "cell surface RON (Homo sapiens, UniProt Q04912)", "sequence (Q04912 310-1400 limits assumed)": "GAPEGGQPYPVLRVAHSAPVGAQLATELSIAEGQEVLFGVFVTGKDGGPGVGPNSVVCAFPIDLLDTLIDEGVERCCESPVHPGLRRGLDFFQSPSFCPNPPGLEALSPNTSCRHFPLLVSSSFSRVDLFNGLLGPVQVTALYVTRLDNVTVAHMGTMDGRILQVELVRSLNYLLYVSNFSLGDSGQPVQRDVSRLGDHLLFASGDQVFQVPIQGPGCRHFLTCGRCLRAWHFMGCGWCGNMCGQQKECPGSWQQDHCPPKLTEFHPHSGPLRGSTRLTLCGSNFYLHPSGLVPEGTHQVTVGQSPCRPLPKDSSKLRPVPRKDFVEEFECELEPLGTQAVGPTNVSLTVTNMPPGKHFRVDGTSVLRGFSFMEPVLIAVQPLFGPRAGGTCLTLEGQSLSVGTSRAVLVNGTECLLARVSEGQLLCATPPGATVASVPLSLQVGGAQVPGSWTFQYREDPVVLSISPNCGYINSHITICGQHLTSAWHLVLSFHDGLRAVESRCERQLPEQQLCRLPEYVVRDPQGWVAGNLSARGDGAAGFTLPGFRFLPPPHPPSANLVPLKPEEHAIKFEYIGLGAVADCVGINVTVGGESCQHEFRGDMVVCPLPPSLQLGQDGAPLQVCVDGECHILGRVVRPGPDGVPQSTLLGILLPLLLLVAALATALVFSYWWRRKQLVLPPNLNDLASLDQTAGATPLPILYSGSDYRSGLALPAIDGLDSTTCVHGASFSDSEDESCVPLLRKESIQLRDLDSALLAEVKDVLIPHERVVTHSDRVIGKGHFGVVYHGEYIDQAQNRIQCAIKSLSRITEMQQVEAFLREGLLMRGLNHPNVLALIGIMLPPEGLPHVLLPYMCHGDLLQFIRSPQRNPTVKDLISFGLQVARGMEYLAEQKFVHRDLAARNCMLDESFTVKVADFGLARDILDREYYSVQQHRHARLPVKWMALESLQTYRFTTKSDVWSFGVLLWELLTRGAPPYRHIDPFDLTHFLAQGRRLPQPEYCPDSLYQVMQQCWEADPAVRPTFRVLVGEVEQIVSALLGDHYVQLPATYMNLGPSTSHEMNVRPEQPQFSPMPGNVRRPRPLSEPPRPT", "sequence (Q04912 25-304 limits assumed)": "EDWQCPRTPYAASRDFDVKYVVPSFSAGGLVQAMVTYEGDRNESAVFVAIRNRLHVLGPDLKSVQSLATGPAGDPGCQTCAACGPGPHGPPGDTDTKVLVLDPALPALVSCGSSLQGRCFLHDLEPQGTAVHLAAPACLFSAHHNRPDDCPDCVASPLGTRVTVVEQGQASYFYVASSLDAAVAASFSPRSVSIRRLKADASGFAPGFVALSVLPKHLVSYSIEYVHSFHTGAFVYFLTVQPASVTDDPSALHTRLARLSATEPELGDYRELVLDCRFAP", "assay": "Kinetic reduction of cell surface RON (endocytosis) in CRC cells", "assay_type": "cell-based", "design": "We selected CRC cell lines HT29, HCT116, and SW620 expressing variable levels of RON as the cellular model; host or cells: HCT116, HT29, SW620", "conditions": "for time required to induce 50% RON reduction (internalization efficacy): 37° C.", "procedure": "FIGS. 2A to 2F show the binding and induction of RON endocytosis by Zt/g4-DM1 in CRC cells. FIG. 2A: Levels of RON expression by different CRC cell lines: Five CRC cells lines (1×10^6 cells/ml) in PBS were incubated at 4° C. with 5 μg/ml Zt/g4 for 60 min. […] matched mouse IgG was used as the control. Cell surface RON was quantitatively determined by the immunofluorescence assay using QIFKIT® reagents from DAKO (Carpentaria, Calif.) as detailed in Materials and Methods. FIG. 2B: Binding of Zt/g4-DM1 to human CRC cell lines: HCT116, HT29, and SW620 cells (1×10^5 cells) were incubated with 5 μg Zt/g4-DM1 or Zt/c1-DM1. Free Zt/g4 and Zt/c1 was used as the control. Fluorescence intensity from individual samples was determined by flow cytometric analysis. FIG. 2C: Kinetic reduction of cell surface RON: HCT116, HT29, and SW620 cells (1×10^6 cells per dish) were treated at 37° C. with 5 μg/ml of Zt/g4-DM1, collected at different time points, washed with acidic buffer to eliminate cell surface bound IgG, and then incubated with 1 μg/mL of anti-RON mAb 2F2 Immunofluorescence was analyzed by flow cytometer using FITC-coupled anti-mouse IgG Immunofluorescence from cells treated with Zt/g4-DM1 or Zt/c1-DM1 at 4° C. was set as 100%. Internalization efficiency was calculated as the time required to achieve 50% cell surface RON reduction. FIG. 2D: RON reduction analysis by Western blotting: Cellular proteins (50 μg per lane) from cells treated with 5 μg/ml of Zt/g4 or Zt/g4-DM1 for various times were separated in an 8% SDS-PAGE under reduced conditions and transferred to the membrane. RON was detected by rabbit anti-RON antibody followed enhanced chemiluminescent reagents. The same membrane was reprobed for actin as the loading control. FIG. 2E: Quantitative measurement of RON expression: The intensity of individual RON-β chains was determined by densitometric analysis. Internalization efficiency was calculated as the time required to achieve a 50% RON reduction. FIG. 2F: Immunofluorescent localization of cytoplasmic RON: HT29 cells (1×10^5 cells per chamber) were treated at 4° C. or 37° C. with 5 μg/ml of Zt/g4-DM1 or Zt/c1-DM1 for 6 h followed by FITC-coupled anti-mouse IgG. After cell fixation, immunofluorescence was detected using the BK70 Olympus microscope equipped with a fluorescence apparatus. LAMP1 was used as a marker for protein cytoplasmic localization. DAPI was used to stain nuclear DNA;\nZt/g4-DM1-induced RON endocytosis was studied, which is a process essential for delivering DM1 into CRC cells. Zt/g4-DM1 causes a progressive reduction of cell surface RON in a time-dependent manner in all three CRC cell lines tested (FIG. 2C). Less than 20% of RON remained on the cell surface after a 48 hour treatment. […] Thus, Zt/g4-DM1 is more efficient and potent in induction of RON endocytosis."}
{"molecule": "B1", "values": [{"measurement": "time required to induce 50% RON reduction (internalization efficacy)", "setting": "HCT116, 5 μg/ml", "value": 12.26, "unit": "h"}, {"measurement": "time required to induce 50% RON reduction (internalization efficacy)", "setting": "HT29, 5 μg/ml", "value": 11.02, "unit": "h"}, {"measurement": "time required to induce 50% RON reduction (internalization efficacy)", "setting": "SW620, 5 μg/ml", "value": 12.30, "unit": "h"}, {"measurement": "RON remaining on the cell surface", "setting": "after 48 hour treatment, 5 μg/ml, three CRC cell lines", "value": "Less than 20%"}, {"measurement": "cell surface RON internalized", "setting": "within 48 h", "value": "> 80", "unit": "%"}]}
